One molecule from PMC11050682, “https://orcid.org/0009-0003-0282-9605 Pérez-Mora Salvador Conceptualization Methodology Software Validation Formal analysis Investigation Data curation Writing – original draft Writing – review & edit” can be followed below.

In the data set the target is T1, drEhHSTF5 (dimeric rEhHSTF5, fraction 10) (Entamoeba histolytica, UniProt C4M5X4 1-329).
T1 sequence: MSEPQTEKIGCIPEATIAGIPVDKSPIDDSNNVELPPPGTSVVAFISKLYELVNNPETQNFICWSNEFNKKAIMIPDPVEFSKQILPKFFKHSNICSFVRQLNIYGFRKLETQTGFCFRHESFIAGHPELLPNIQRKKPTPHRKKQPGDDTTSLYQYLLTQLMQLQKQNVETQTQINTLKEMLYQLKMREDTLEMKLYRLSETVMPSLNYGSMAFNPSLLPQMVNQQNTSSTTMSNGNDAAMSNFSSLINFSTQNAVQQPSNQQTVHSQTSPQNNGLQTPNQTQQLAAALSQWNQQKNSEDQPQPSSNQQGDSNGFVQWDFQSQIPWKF
As to the kind of experiment: competition; 150x molar excess; complex reduced. As to conditions: protein: recombinant; tags: N-terminal His6 (pET-28a); chain copies: 2; blunt.

B1: HSE_EhPgp5 unlabelled (specific competitor) (dsDNA)
DNA 1: ATAGAAATTTTTCATA
DNA 2: TATGAAAAATTTCTAT
As to B1, the binding result is reported as “binds”.
